Measured values from patent US20100209422A1 (ROCKEFELLER UNIVERSITY, published 2010).

Tests used:
[1] = target: T1, protofibrillar (PF) form of Aβ42 (human); assay: SPR (BIAcore), ratio of PF binding to LMW binding
T1 construct: also called PF Aβ42; protofibril form of Aβ
Protocol: (§1) The purified monoclonal antibodies listed in Table 1 (below), were immobilized to a BIAcore sensor chip in accordance with publish protocols. (Nice, et al. BioEssays 21: 339-352 (1999)). The high sensitivity of the BIAcore optical response quantifies a change in reflectivity and a baseline response for the ligand alone is generated. The interaction analysis is performed as the analytes, the LMW form or the PF form of […], are injected in solution over the sensor chip and the change in surface plasmon resonance generates a response identifying the specificity of each antibody's ability to bind LMW and PF Aβ42. Both the 13C3 and the 19A6 antibodies all bound to the PF form of Aβ 42 with higher specificity than the LMW form.

[2] = target: T1, protofibrillar (PF) form of Aβ42; assay: SPR (BIAcore), ratio of PF binding to LMW binding; remark: listed apart in the source
Protocol: as §1
Automated BIAcore systems, which use the detection principle of Surface Plasmon Resonance, were used in these experiments.

T1 sequence (peptide, as listed by the source): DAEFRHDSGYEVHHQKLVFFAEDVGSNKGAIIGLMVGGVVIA

- Ratio (PF/LMW) [1]: 5
- binding ratio (PF/LMW) [2]: 5.3
B1: monoclonal antibody 13C3 (antibody, IgG1, V domains shown)
VH: QVQLQQSGPELVRPGVSVKISCKGSGYTFTDYAMHWVKQSHAKSLEWIGVISTKYGKTNYNQKFKGKATMTVDKSSSTAYMELARLTSEDSAIYYCARGDDGYSWGQGTSVTVSS
VL: DVVMTQTPLSLPVSLGDQASISCRSGQSLVHSNGNTYLHWYLQKPGQSPKLLIYTVSNRFSGVPDRFSGSGSGSDFTLKISRVEAEDLGVYFCSQNTFVPWTFGGGTKLEIKR
notes: Hybridoma ATCC PTA-8830; also called mAb 13C3; anti-Aβ antibody clone 13C3
